Earlier results on two substances are cited in article PMC4496705.

The term Kd denotes the equilibrium constant for the complex coming apart.

Series [1] has as its target SKIP (Homo sapiens) (UniProt Q13573). The experiment in a line: SPR.
Series [2] has as its target hPrp4 peptide (Homo sapiens) (UniProt O43172). The series can be described thus: ITC. In general terms: ITC needs no label: the signal is the heat of the interaction.
Chain of UniProt O43172 (O43172 whole entry): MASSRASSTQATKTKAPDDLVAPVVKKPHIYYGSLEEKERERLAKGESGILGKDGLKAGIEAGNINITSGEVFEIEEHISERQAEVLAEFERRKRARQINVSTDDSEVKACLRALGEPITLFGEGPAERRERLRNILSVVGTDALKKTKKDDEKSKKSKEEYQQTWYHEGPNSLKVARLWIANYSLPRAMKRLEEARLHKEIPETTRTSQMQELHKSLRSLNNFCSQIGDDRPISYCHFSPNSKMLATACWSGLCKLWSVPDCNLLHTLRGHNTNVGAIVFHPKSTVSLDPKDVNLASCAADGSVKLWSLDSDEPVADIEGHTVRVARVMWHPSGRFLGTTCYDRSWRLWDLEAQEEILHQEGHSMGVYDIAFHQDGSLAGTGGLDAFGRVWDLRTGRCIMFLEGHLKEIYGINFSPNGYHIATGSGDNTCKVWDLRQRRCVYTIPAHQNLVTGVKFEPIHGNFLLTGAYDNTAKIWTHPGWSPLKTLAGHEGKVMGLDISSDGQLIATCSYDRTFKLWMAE

Chain of UniProt Q13573 (Q13573 2-536): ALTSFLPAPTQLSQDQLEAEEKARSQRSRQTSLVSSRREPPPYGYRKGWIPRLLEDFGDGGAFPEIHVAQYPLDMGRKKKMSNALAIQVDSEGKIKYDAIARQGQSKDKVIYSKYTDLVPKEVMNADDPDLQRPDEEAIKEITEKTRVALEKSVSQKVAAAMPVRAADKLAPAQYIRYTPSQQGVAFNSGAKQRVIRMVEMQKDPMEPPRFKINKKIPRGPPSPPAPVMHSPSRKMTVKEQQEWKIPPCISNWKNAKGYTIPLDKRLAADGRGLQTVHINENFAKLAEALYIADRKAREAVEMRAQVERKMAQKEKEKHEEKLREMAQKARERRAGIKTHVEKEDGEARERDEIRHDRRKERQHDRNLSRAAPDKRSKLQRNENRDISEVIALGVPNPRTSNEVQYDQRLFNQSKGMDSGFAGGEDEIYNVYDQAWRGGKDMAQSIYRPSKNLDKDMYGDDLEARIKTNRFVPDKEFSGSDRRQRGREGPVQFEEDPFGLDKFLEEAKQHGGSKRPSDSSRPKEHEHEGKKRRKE

In the case of PPIL1 (from UniProt Q9Y3C6), the Kd in series [1] was 125 nM.
In the case of PPIH (from UniProt O43447), the Kd in series [2] was 1970 nM.
